{"source": "paper PMC4944944", "about": "“The Calponin Family Member CHDP-1 Interacts with Rac/CED-10 to Promote Cell Protrusions” (PLoS Genetics, 2016)", "binders": {"B1": {"name": "Myc-tagged CED-10 (natural protein)", "chain": "not shown", "notes": "CED-10, Rac1 homolog (Rho family small GTPase) of C. elegans; cDNA from Dr. Yuji Kohara; Cloned into a modified pcDNA3.1/myc-HIS(-) vector; also called Rac1/CED-10; worm Rac1 homolog; source: HEK293T, transfected, in lysate"}}, "biological_target": "T1, Flag-tagged full-length CHDP-1 (C. elegans, UniProt P91027 1-338)", "T1 construct": "CHDP-1 (C10G11.7), single type III calponin homology domain protein of C. elegans; fragment limits show 338 residues; Cloned into a modified pFLAG-CMV-2 vector; In the self-association co-IP the second copy carried Myc (modified pcDNA3.1/myc-HIS(-) vector) in place of Flag; also called FLAG-CHDP-1; C10G11.7; source: HEK293T, transfected, in lysate", "T1 sequence (looked up)": "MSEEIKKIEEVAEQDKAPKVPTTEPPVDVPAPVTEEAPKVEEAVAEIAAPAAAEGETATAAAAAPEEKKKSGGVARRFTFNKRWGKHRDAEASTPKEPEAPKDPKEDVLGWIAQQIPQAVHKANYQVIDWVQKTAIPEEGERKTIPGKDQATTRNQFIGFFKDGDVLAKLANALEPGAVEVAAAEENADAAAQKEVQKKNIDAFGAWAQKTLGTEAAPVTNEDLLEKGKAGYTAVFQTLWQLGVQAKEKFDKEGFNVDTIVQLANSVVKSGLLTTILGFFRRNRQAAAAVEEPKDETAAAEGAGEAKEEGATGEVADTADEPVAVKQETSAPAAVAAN", "assay": "co-IP; Flag-CHDP-1 and Myc-CED-10 expressed in HEK293T cells, affinity purified, mixed together, then co-immunoprecipitated with Flag or Myc antibodies", "details": "both partners purified"}
{"binder": "B1", "values": [{"measurement": "binding result", "value": "binds"}]}
